This is an account of results in IntAct's records for PubMed 17919502.

B1: Copper-transporting ATPase 2 (Homo sapiens), P35670 (parent)
chain: MPEQERQITAREGASRKILSKLSLPTRAWEPAMKKSFAFDNVGYEGGLDGLGPSSQVATSTVRILGMTCQSCVKSIEDRISNLKGIISMKVSLEQGSATVKYVPSVVCLQQVCHQIGDMGFEASIAEGKAASWPSRSLPAQEAVVKLRVEGMTCQSCVSSIEGKVRKLQGVVRVKVSLSNQEAVITYQPYLIQPEDLRDHVNDMGFEAAIKSKVAPLSLGPIDIERLQSTNPKRPLSSANQNFNNSETLGHQGSHVVTLQLRIDGMHCKSCVLNIEENIGQLLGVQSIQVSLENKTAQVKYDPSCTSPVALQRAIEALPPGNFKVSLPDGAEGSGTDHRSSSSHSPGSPPRNQVQGTCSTTLIAIAGMTCASCVHSIEGMISQLEGVQQISVSLAEGTATVLYNPSVISPEELRAAIEDMGFEASVVSESCSTNPLGNHSAGNSMVQTTDGTPTSVQEVAPHTGRLPANHAPDILAKSPQSTRAVAPQKCFLQIKGMTCASCVSNIERNLQKEAGVLSVLVALMAGKAEIKYDPEVIQPLEIAQFIQDLGFEAAVMEDYAGSDGNIELTITGMTCASCVHNIESKLTRTNGITYASVALATSKALVKFDPEIIGPRDIIKIIEEIGFHASLAQRNPNAHHLDHKMEIKQWKKSFLCSLVFGIPVMALMIYMLIPSNEPHQSMVLDHNIIPGLSILNLIFFILCTFVQLLGGWYFYVQAYKSLRHRSANMDVLIVLATSIAYVYSLVILVVAVAEKAERSPVTFFDTPPMLFVFIALGRWLEHLAKSKTSEALAKLMSLQATEATVVTLGEDNLIIREEQVPMELVQRGDIVKVVPGGKFPVDGKVLEGNTMADESLITGEAMPVTKKPGSTVIAGSINAHGSVLIKATHVGNDTTLAQIVKLVEEAQMSKAPIQQLADRFSGYFVPFIIIMSTLTLVVWIVIGFIDFGVVQRYFPNPNKHISQTEVIIRFAFQTSITVLCIACPCSLGLATPTAVMVGTGVAAQNGILIKGGKPLEMAHKIKTVMFDKTGTITHGVPRVMRVLLLGDVATLPLRKVLAVVGTAEASSEHPLGVAVTKYCKEELGTETLGYCTDFQAVPGCGIGCKVSNVEGILAHSERPLSAPASHLNEAGSLPAEKDAVPQTFSVLIGNREWLRRNGLTISSDVSDAMTDHEMKGQTAILVAIDGVLCGMIAIADAVKQEAALAVHTLQSMGVDVVLITGDNRKTARAIATQVGINKVFAEVLPSHKVAKVQELQNKGKKVAMVGDGVNDSPALAQADMGVAIGTGTDVAIEAADVVLIRNDLLDVVASIHLSKRTVRRIRINLVLALIYNLVGIPIAAGVFMPIGIVLQPWMGSAAMAASSVSVVLSSLQLKCYKKPDLERYEAQAHGHMKPLTASQVSVHIGMDDRWRDSPRATPWDQVSYVSQVSLSSLTSDKPSRHSAAADDDGDKWSLLLNGRDEEQYI

The variants in this experiment derive from B1. To be noted: with comd1_human COMMD1, Q8N668.
Sequence of comd1_human COMMD1, Q8N668 (Q8N668 whole entry): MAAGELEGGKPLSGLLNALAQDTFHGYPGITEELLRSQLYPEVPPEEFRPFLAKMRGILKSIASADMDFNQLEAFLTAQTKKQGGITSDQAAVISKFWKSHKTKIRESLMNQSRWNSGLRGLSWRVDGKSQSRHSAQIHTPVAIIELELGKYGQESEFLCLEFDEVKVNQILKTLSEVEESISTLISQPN
On to E541K, for which the “effect of a mutation on the interaction” value was “increasing interaction strength”.

With G284V, the “effect of a mutation on the interaction” value is listed as “increasing interaction strength”.

Consider M645R, for which the “effect of a mutation on the interaction” value is “decreasing interaction strength”.

Turning to G626A, the “effect of a mutation on the interaction” value is given as “decreasing interaction strength”.

On to L641S, for which the “effect of a mutation on the interaction” value is “with no effect”.

As for G515V, the “effect of a mutation on the interaction” value was “increasing interaction strength”.

For N41S, the “effect of a mutation on the interaction” value is reported as “increasing interaction strength”.

Turning to G85V, the “effect of a mutation on the interaction” value is given as “increasing interaction strength”.

Regarding A604P, the “effect of a mutation on the interaction” value is “decreasing interaction strength”.

As for G591D, the “effect of a mutation on the interaction” value is recorded as “increasing interaction strength”.

G170V: the “effect of a mutation on the interaction” value is recorded as “increasing interaction strength”.

With G386V, the “effect of a mutation on the interaction” value was “increasing interaction strength”.

With A486S, the “effect of a mutation on the interaction” value is recorded as “increasing interaction strength”.

Turning to R616Q, the “effect of a mutation on the interaction” value is reported as “increasing interaction strength”.

In the case of R616W, the “effect of a mutation on the interaction” value is “increasing interaction strength”.

On to Y532H, for which the “effect of a mutation on the interaction” value was “increasing interaction strength”.

On to L492S, for which the “effect of a mutation on the interaction” value is recorded as “with no effect”.

D642H: the “effect of a mutation on the interaction” value is “decreasing interaction strength”.
